Assays:
Type in all cases: in vivo, mice
[1] = tested on: striatonigral projection neurons (D1 MSNs); assay: Retrograde labeling of striatal MSNs after AAV injection into the SNr, EYFP+ cell counting; conditions: for labeled neurons, reporter expression in MSNs by promoter (FIG. 4B), mean±SEM: promoter comparison
Procedure: To improve efficiency, multiple rounds of mutations of AAV capsids were performed on a series of different serotypes. Mutations were introduced at three sites in the AAV8 capsid protein to make AAV8R, including N385D, insertion of […] (SEQ ID NO: 31) at position 588, and TS711-7121N. Two additional mutations of V183E and N41 IS were incorporated into the AAV8R12 capsid protein (FIG. 1A). The labeling pattern of the AAV8R12 capsid and G88 promoter combination was determined.
was inserted at the N587-R588 position; two other point mutations of the AAV2 Cap protein were made to develop rAAV2-retro. Similar mutations were then placed at equivalent positions for four other AAV serotypes (FIGS. 1A-1C and 25, TABLE 1), AAV1/5/6/8 (FIG. 1A). […] When administered into the SNr, 4.86±0.22 times EYFP positive MSNs in mice infected by AAV8R-hSyn-EYFP were observed as compared to those infected by rAAV2-retro-hSyn-EYFP (FIG. 2A-2C).
Baseline infectivity of rAAV2-retro was approximately 0.2±0.03×10^4 cells per striatal hemisphere (using a hSyn promoter) (TABLE 2). […] Compared to the current standard retrograde AAV, rAAV2-retro, AAV8R12 labeled 7.72±0.78-times more MSNs after nigral delivery (FIG. 2B-2C, TABLE 1). […] The AAV8R12 was generated using the AAV8R plasmid as a template.
Mice were anesthetized with sodium pentobarbital (Nembutal; 80 mg/kg, i.p.), and then placed into a stereotaxic device (KOPF). Eye cream was applied on both corneas to avoid dehydration. The skull above the targeted areas was thinned with a dental drill and carefully removed. Injections were conducted with a 10 μL syringe connected to a 33-Gauge needle (Neuros; Hamilton), using a microsyringe pump (Legato 130, KD Scientific). A total volume of 200 nL virus was injected into the SNr at a speed of 20 nL/min. The coordinates for the SNr were 3.4 mm posterior, 1.3 mm lateral, 4.8 mm ventral to the bregma.
Images were acquired using a confocal microscope (Carl Zeiss, LSM880) and an Axiolmager. Z1 microscope with apotome (Carl Zeiss). Brain structures were identified microscopically and in digital photos using a mouse brain atlas. To analyze the number of EYFP+ cells in the striatum, slices from rostral to caudal striatum were used. Every sixth section was analyzed, and numbers of EYFP+ cells were multiplied by six to acquire the approximate total number and mean number of cells per animal. Images were processed using ImageJ (NIH, USA), and final quantifications were independently performed manually by two blinded experimenters.

[2] = tested on: striatum (STR); assay: Promoter screening: YFP-expressing neurons after injection of AAVs into the SNr, striatum; conditions: numbers of YFP-expressing neurons per animal
Description: (§1) To find promoters that offer high levels of expression in MSNs, gene expression databases were scanned to identify a list of eight genes that have highly enriched striatal expression compared to other parts of the basal ganglia (BG). Genes highly expressed in the striatum, but not other parts of the basal ganglia, were first selected as candidates.
(§2) Brain profiles of two epigenetic marks for enhancers and promoters, monomethylation of histone H3 lysine 4 (H3K4me1) and acetylation of histone H3 lysine 27 (H3K27ac) were checked and approximately 2 kilobase-long sequences around the transcriptional start site (TSS) that have high levels of H3K4me1 and/or H3K27ac were identified in mouse brain. Homologous sequences at equivalent positions of the human genome were then cloned onto an AAV backbone, and the activity of the homologous sequences in directing reporter expression was tested in mice after injections of AAVs into the SNr (FIG. 3A-C, TABLE 3).
(§3) G88P2 (2259 bp) was cloned with the following primers: 5′-[…] (SEQ ID NO.: 36) and 3-[…] (SEQ ID NO.: 37). To increase the payload of AAV genome, the G88P2 promoter was shorted using restriction enzymes, and two derivatives, G88P3 and G88P7, were made which were 1395-bp and 896-bp long, respectively (FIG. 3A-3C). Comparative efficiency in labeling MSNs for the two shortened promoters was observed. For mice that received viral injections into the SNr, viruses expressing EYFP driven by G88P3 and G88P7 promoters labeled 3.7±0.66×104 and 3.95±0.73×104 MSNs per mouse, respectively, compared to 1.61±0.16×104 labeled MSNs by hSyn promoter (FIG. 4B).
(§4) Region-selective promoter identification was based on the Allen Brain Atlas in situ hybridization (ISH) data (mouse.brain-map.org/). Genes highly expressed in the striatum but not in other parts of the basal ganglia were first selected as candidates. H3K4me 1 and H3K27ac are known epigenetic marks for active promoters and enhancers. Thus, we identified regions with high levels of these two chromatin modification marks in mouse brain as candidate regions based on the ENCODE annotation data on the UCSC Genome Browser (genome.ucsc.edu/). To further extend the promoters' potential application in primates, the sequences of interest were PCR-amplified from human genomic DNA. Based on the above strategies, GPR88 was selected as a candidate gene. […]
(§5) Images were acquired using a confocal microscope (Carl Zeiss, LSM880) and an Axiolmager. […] Every sixth section was analyzed, and numbers of EYFP+ cells were multiplied by six to acquire the approximate total number and mean number of cells per animal. Images were processed using ImageJ (NIH, USA), and final quantifications were independently performed manually by two blinded experimenters.

[3] = tested on: substantia nigra (SN); assay: Promoter screening: YFP-expressing neurons after injection of AAVs into the SNr, substantia nigra; conditions: numbers of YFP-expressing neurons per animal
Description: as §1, §2, §3, §4, §5

[4] = tested on: MSNs in nucleus accumbens; assay: Retrograde labeling of accumbal MSNs after delivery into ventral pallidum or lateral hypothalamus; conditions: stereotaxic delivery into ventral pallidum or lateral hypothalamus

G88P2: 2259-bp promoter from the gene GPR88; SEQ ID NO: 44
labeled neurons, reporter expression in MSNs by promoter (FIG. 4B), mean±SEM ([1]; n=3 mice per group): 36290±3705 | Activity Level STR [2]: ++++ (>25k) | Activity Level SN [3]: + (<5k)

R9P1: promoter from gene RGS9, 2152 bp; SEQ ID NO: 47
Activity Level STR [2]: +++ (10k-25k) | Activity Level SN [3]: + (<5k)

B1: G88P7: 896-bp shortened GPR88 promoter; SEQ ID NO: 46 (nucleic acid, listed as Homo sapiens)
DNA: ATGCCAAGCGTGGAAAGGCTGTCTTTTCCCTGGATGATGTATAACTAAGCAGGAGAGAGCTTCGAGTGGGTTCACCACATCAGCCACCACTCCTGCTTCTGAGCACAGGGTGCTCTCCTCTTGAGCTCAGCTTCTGCTTTTGCAGCCAAGCATTCTTGCTGCTGCTGCCTGCCTGCCCACCCGCCTGGGCTTGCAGCCCGCCACTTTACTTTCTCCAGCCCTGATACCAGCTGAGAAGTCTCCCTGCAGCTGCTAGTTCCTGCCCAGGACCATGTGTGTGGATGCTGCTTGGGAGAAGCGGGCACTTGCTCCTGGCACTGATCCCAGCTGAGTTTCTCCTGTTGATTTCTGGACCACTGATGCTGTTGCTGAGGAGGTATTTCCCGGCATCCCTCCCCCTGAGACACCGGCTAAGGACCAGCCTAAACGCAAGGTAACCTTCACCTCTTTCCCATGGGATTTTCCCCAGCTGGGATATCTCTGCTTTCTCCTGGAACTAGGTCCTCCAGCTGGCAACATATCTCTCTCTCTCTCTCTCTCTCTCTCTCTCTCTCTCTCTCTGTGTGTGTGTGTGTGTGTTGGGGGAGAAGAGGAGACTGTTTTAGGTATTGCTCTGTCCTAGGGCTTCCCCGATACCTGCTGAATCCAATGCAAAGTGGCCTTTCCCCTGGCTCTGGAGACATTTCCGAGGCAGGCACCTGTCATCTGCCACCCCCGTCCTCCTCCTCGAGCTCCCTTTCTCCCCCTCCCCCAGCCCATTATTCTGCTTCAGCCTTTTGTGTCAGTGGCAGAGGGCTGAAGGGATGTCTTTGCCCTTCTGGCAGGCAGGACAGTGTCAGGATGGACCGCGCTGCCAGAAGCCGACGCTAGCGAGGGAGGTGTGAAGAGTTGGCCAG
labeled neurons, reporter expression in MSNs by promoter (FIG. 4B), mean±SEM ([1]; n=3 mice per group): 39460±7281 | Activity Level STR [2]: ++++ (>25k) | Activity Level SN [3]: + (<5k)

B2: AAV8R: AAV8 capsid with N385D, insertion of SEQ ID NO: 31 at position 588 and TS to IN mutation; Cap SEQ ID NO: 1 (protein)
chain: MAADGYLPDWLEDNLSEGIREWWALKPGAPKPKANQQKQDDGRGLVLPGYKYLGPFNGLDKGEPVNAADAAALEHDKAYDQQLQAGDNPYLRYNHADAEFQERLQEDTSFGGNLGRAVFQAKKRVLEPLGLVEEGAKTAPGKKRPVEPSPQRSPDSSTGIGKKGQQPARKRLNFGQTGDSESVPDPQPLGEPPAAPSGVGPNTMAAGGGAPMADNNEGADGVGSSSGNWHCDSTWLGDRVITTSTRTWALPTYNNHLYKQISNGTSGGATNDNTYFGYSTPWGYFDFNRFHCHFSPRDWQRLINNNWGFRPKRLSFKLFNIQVKEVTQNEGTKTIANNLTSTIQVFTDSEYQLPYVLGSAHQGCLPPFPADVFMIPQYGYLTLNDGSQAVGRSSFYCLEYFPSQMLRTGNNFQFTYTFEDVPFHSSYAHSQSLDRLMNPLIDQYLYYLSRTQTTGGTANTQTLGFSQGGPNTMANQAKNWLPGPCYRQQRVSTTTGQNNNSNFAWTAGTKYHLNGRNSLANPGIAMATHKDDEERFFPSNGILIFGKQNAARDNADYSDVMLTSEEEIKTTNPVATEEYGIVADNLQRGNLADQDYTKTARQAATADVNSQGALPGMVWQNRDVYLQGPIWAKIPHTDGNFHPSPLMGGFGLKHPPPQILIKNTPVPADPPTTFNQSKLNSFITQYSTGQVSVEIEWELQKENSKRWNPEIQYTSNYYKSINVDFAVNTEGVYSEPRPIGTRYLTRNL
EYFP positive / labeled MSNs compared to rAAV2-retro ([1]; after nigral delivery, hSyn-EYFP): 4.86±0.22 times | labeled striatonigral projection neurons (FIG. 2C), mean±SEM ([1]; capsid comparison, injection into SNr of wild type mice, n=3 mice per group): 10092±463.9 | Mean (AAVs with capsid and promoter) ([1]; labeled cells after nigral injection in mice, b188 refers to it as cells per striatal hemisphere, SD and SEM in own columns): 10092 | labeling of MSNs in nucleus accumbens [4]: robust labeling of MSNs

B3: G88P3: 1395-bp shortened GPR88 promoter; SEQ ID NO: 45 (nucleic acid, listed as Homo sapiens)
DNA: TCTAGATGTACCACTGACATCTGCTTTAAATCTTTTGCCCATTTCATTTTTACCCTCTAACCATTTCATTACTAAAACACAAAACAAACTCCGGAAAGGAGTTTGTTGATGAGAAAACACTGAAAGTACGATTTAAATTGAGGAATGGAGATTTTCTGTGGATAATTGTCTATGTTCCACTTTACCAAAGAAAAATGAATTTCAAGTAGTGCATAAAGTAATTCTCGTTAAAAAATGTGGGAATAAAGAGATCAGTCCTGGGTACTGGGAATATATTTATCTCACAGAAAAATCTTGCCCACAAAATGCATCAGACTGAGATGAAATACTCTAGGGTATATTAAATTTTATTCTAATATTGAAGGGAGGGAAAAAAAGGACGGAAAGAAAAATGAAACAGGATGAAAAATAAGGTGATTGGGAGAGAGAAAAGACAGAGAAACTTGTTAACGACAGGACTTTCTGAGCAAGATATTTTTCTTCCTTTTACAAGTTGGAAGCTATTGAATAATTCATGCCAAGCGTGGAAAGGCTGTCTTTTCCCTGGATGATGTATAACTAAGCAGGAGAGAGCTTCGAGTGGGTTCACCACATCAGCCACCACTCCTGCTTCTGAGCACAGGGTGCTCTCCTCTTGAGCTCAGCTTCTGCTTTTGCAGCCAAGCATTCTTGCTGCTGCTGCCTGCCTGCCCACCCGCCTGGGCTTGCAGCCCGCCACTTTACTTTCTCCAGCCCTGATACCAGCTGAGAAGTCTCCCTGCAGCTGCTAGTTCCTGCCCAGGACCATGTGTGTGGATGCTGCTTGGGAGAAGCGGGCACTTGCTCCTGGCACTGATCCCAGCTGAGTTTCTCCTGTTGATTTCTGGACCACTGATGCTGTTGCTGAGGAGGTATTTCCCGGCATCCCTCCCCCTGAGACACCGGCTAAGGACCAGCCTAAACGCAAGGTAACCTTCACCTCTTTCCCATGGGATTTTCCCCAGCTGGGATATCTCTGCTTTCTCCTGGAACTAGGTCCTCCAGCTGGCAACATATCTCTCTCTCTCTCTCTCTCTCTCTCTCTCTCTCTCTGTGTGTGTGTGTGTGTGTTGGGGGAGAAGAGGAGACTGTTTTAGGTATTGCTCTGTCCTAGGGCTTCCCCGATACCTGCTGAATCCAATGCAAAGTGGCCTTTCCCCTGGCTCTGGAGACATTTCCGAGGCAGGCACCTGTCATTTGCCACCCCCGTCCTCCTCCTCGAGCTCCCTTTCTCCCCCTCCCCCAGCCCATTATTCTGCTTCAGCCTTTTGTGTCAGTGGCAGAGGGCTGAAGGGATGTCTTTGCCCTTCTGGCAGGCAGGACAGTGTCAGGATGGACCGCGCTGCCAGAAGCCGACGCTAGCGAGGGAGGTGTGAA
labeled neurons, reporter expression in MSNs by promoter (FIG. 4B), mean±SEM ([1]; n=3 mice per group): 37026±6646 | Activity Level STR [2]: ++++ (>25k) | Activity Level SN [3]: + (<5k)

From patent publication US20250382346A1, “NEURONAL PROMOTERS AND USES THEREOF” (priority 2023, published 2025)
